Test system: Streptococcus pyogenes ATCC #19615
Assay: LF/GMP assay, viable plate count (pour plate) of broth culture
Format: cell-based
Parameters: key to MIBC: NCF: No Effective Concentration Found
Conditions: 35° C.; for Colony Counts: viable plate count
Procedure: Bacterial strains used in this study were Pseudomonas aeruginosa ATCC #27853, Streptococcus mutans ATCC #33535, Streptococcus pyogenes ATCC #19615, and Actinobacillus haemophilus ATCC #43717 and an oral swab from a healthy adult. Bacteria were grown on blood/BHT media (Brain Heart Infusion Agar with protease peptone, sodium chloride, glucose, di-sodium phosphate, and agar, Oxoid, Hampshire England, Sheep's Blood) in the presence of 5% CO2 at 35° C. […] The 0.5 McFarland value is approximately equivalent to 1.0×10^8 organisms. One ml of the appropriate bacterial dilution was taken using a sterile pipette and introduced into 8 ml of sterilized BHI broth. […] By pipette, 9 ml of broth was placed into medium test tubes as means of a control and 8 ml test tubes were prepared for the concentration tests). […] This solution was filtered through a 0.45 μm filter. […] Example for calculating 2,500 ppm dilution (1,000 ppm=0.1%): [formula] [formula] [formula] To study the kinetics of LF/GMP binding, each strain of bacteria was taken separately with a sterile pipette and placed into an 8 ml BHI broth test tube, vortexed, and incubated in the presence of 1 ml of LF or GMP for 18-24 hours at 35° C. with 5% CO2. In the combination procedure, 0.5 ml of both LF and […] were taken as 1 ml inoculations. This technique was used to determine the density of living (viable) cells in inoculated broth cultures. It involves plating a bacterial sample and counting the resulting colonies after incubation. A serial dilution of the original broth was taken prior to plating. The serial dilution is necessary to reduce the density of organisms in order to create countable plates. Only plates containing between 25 and 250 colonies are considered countable. Cell densities are traditionally recorded as CFU (colony forming unit)/ml. […] Formula: [formula] The assays required the use of a pour plate technique. The pour plate technique adds a step to the conventional serial dilution. The 1 ml of dilution is added to a warm emulsion of dilute nutrient (BHI) agar to produce an agar overlay in the petri plates. After incubation, the bacterial growth covers the entire plate but individual cellular movement has been restricted by the soft agar overlay. Each colony formed is assumed to have originated from a single CFU. The plates were gently mixed, inverted, and incubated for 18-24 hour at 35° C. Using a control (one broth tube inoculated with a bacterial strain, but no LF), the effectiveness of LF was examined. Each test tube containing a specified amount of LF (50, 100, 250, 500, 1,000 ppm and 3000 ppm) was diluted and plates were poured. After incubating the plates for 24 hours at 35° C. with 5% CO2 (the normal conditions of an oral cavity), the bacterial recovery count was taken and the results were compared to the control. A. haemophilus, S. mutans, S. pyrogenes and an oral culture were tested at 35° C. Pseudomonas aeruginosa was tested at both room temperature and 35° C. with 5% CO2. This was done because P. aeruginosa is not strictly an oral pathogen. It is commonly found in the environment in various conditions. It can be found in the environment and oral intake can cause inflammation in the oral cavity. Most normal oral bacteria are only found in the mouth and are not taken in from outside factors. Therefore, P. aeruginosa is a threat in both temperature settings. Table 1 depicts the minimum inhibitor concentration (MBEC) for each of the bacterial strains at 35° C. S. pyogenes and the oral culture were not effected by LF at any tested concentration. […] (see Table 2).

B1: LF: Bovine lactoferrin, iron-binding glycoprotein purified from milk, provided by DMV International (protein, UniProt P24627 20-708, looked up)
Lactotransferrin: APRKNVRWCTISQPEWFKCRRWQWRMKKLGAPSITCVRRAFALECIRAIAEKKADAVTLDGGMVFEAGRDPYKLRPVAAEIYGTKESPQTHYYAVAVVKKGSNFQLDQLQGRKSCHTGLGRSAGWIIPMGILRPYLSWTESLEPLQGAVAKFFSASCVPCIDRQAYPNLCQLCKGEGENQCACSSREPYFGYSGAFKCLQDGAGDVAFVKETTVFENLPEKADRDQYELLCLNNSRAPVDAFKECHLAQVPSHAVVARSVDGKEDLIWKLLSKAQEKFGKNKSRSFQLFGSPPGQRDLLFKDSALGFLRIPSKVDSALYLGSRYLTTLKNLRETAEEVKARYTRVVWCAVGPEEQKKCQQWSQQSGQNVTCATASTTDDCIVLVLKGEADALNLDGGYIYTAGKCGLVPVLAENRKSSKHSSLDCVLRPTEGYLAVAVVKKANEGLTWNSLKDKKSCHTAVDRTAGWNIPMGLIVNQTGSCAFDEFFSQSCAPGADPKSRLCALCAGDDQGLDKCVPNSKEKYYGYTGAFRCLAEDVGDVAFVKNDTVWENTNGESTADWAKNLNREDFRLLCLDGTRKPVTEAQSCHLAVAPNHAVVSRSDRAAHVKQVLLHQQALFGKNGKNCPDKFCLFKSETKNLLFNDNTECLAKLGGRPTYEEYLGTEYVTAIANLKKCSTSPLLEACAFLTR
In the case of B1, the “Colony Counts” value (50 ppm, 24 h) is reported as 5.8 × 10^7, the “Colony Counts” value (100 ppm, 24 h) is reported as 1.5 × 10^7 and the “Colony Counts” value (500 ppm, 24 h) is reported as 7.8 × 10^7. The “Colony Counts” value (3,000 ppm, 24 h) was 1.7 × 10^8, the “Total Log Reduction” value (Lactoferrin/GMP 250/0 ppm (LF alone)) was 0 log and the “Total Log Reduction” value (Lactoferrin/GMP 3,000/0 ppm (LF alone)) was 0 log. For the same molecule, the “# Log Reductions” value (at the MIBC, vs control) was 0 log, the “effect on growth (in words)” value (single agent, any tested concentration) was “not effected” and the MIBC (single agent, 24 h, 5% CO2) was “NCF”.
